The record followed here is PMC11931385, “Structural and functional analysis of cancer-associated missense variants in the retinoblastoma protein pocket domain” (The Journal of Biological Chemistry, 2025).

What all share (experiment): fluorescence polarisation; 37 °C, after the 25 °C reading ramped over 7 min to 37 °C and 2 min incubation; unlabeled Rb^P against 1.5 nM TMR-E2F1^TD or 7.5 nM TMR-E7^LxCxE; 25 mM Tris pH 8.0, 200 mM NaCl, 1 mM DTT, 0.1% Tween-20; apparent Kd
Holding throughout (conditions): both partners purified
(Fluorescence polarisation rises when a labelled molecule tumbles more slowly, as on binding a larger partner.)

One test addresses T1, Rb^P L572I (human, UniProt P06400 380-788, L572I).
T1 construct: also called variant 31
T1 sequence (looked up): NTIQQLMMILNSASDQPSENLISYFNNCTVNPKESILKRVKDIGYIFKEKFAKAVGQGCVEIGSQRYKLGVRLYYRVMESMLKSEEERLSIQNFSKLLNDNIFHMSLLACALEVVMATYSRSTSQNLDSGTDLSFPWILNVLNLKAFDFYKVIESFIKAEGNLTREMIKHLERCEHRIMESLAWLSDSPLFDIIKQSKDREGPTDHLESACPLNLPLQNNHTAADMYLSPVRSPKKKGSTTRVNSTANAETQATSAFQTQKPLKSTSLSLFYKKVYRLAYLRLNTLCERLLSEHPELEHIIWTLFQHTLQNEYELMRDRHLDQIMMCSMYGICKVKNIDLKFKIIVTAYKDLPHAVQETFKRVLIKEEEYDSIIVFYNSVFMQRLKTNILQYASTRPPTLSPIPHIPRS

The target in the next test is T2, Rb^P D604G (human, UniProt P06400 380-788, D604G).
T2 construct: also called variant 36
T2 sequence (looked up): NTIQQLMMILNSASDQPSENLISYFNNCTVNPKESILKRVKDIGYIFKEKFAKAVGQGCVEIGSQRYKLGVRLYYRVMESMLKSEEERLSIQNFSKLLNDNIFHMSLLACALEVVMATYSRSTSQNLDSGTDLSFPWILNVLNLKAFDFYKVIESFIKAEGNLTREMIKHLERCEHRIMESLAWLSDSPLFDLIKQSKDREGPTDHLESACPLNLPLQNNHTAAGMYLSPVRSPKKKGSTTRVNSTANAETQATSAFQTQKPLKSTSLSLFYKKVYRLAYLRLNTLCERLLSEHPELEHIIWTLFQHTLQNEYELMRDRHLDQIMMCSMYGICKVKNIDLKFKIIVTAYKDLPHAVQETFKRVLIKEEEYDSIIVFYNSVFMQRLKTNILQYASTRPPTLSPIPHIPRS

Another test deals with T3, Rb^P Q444L (human, UniProt P06400 380-788, Q444L).
T3 construct: also called variant 3
T3 sequence (looked up): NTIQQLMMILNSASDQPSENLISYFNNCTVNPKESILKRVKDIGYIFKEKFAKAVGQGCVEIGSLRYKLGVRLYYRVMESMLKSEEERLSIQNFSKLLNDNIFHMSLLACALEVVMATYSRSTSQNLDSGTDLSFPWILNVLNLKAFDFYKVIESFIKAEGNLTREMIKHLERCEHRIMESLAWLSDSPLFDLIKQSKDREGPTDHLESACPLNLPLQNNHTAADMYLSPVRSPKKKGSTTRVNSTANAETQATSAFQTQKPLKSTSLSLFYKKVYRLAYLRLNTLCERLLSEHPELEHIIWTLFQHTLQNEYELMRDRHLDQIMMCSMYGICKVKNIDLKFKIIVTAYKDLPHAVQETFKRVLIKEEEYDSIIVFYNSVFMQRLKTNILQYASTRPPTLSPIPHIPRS

The target of the next test is T4, Rb^P K462E (human, UniProt P06400 380-788, K462E).
T4 construct: also called variant 8
T4 sequence (looked up): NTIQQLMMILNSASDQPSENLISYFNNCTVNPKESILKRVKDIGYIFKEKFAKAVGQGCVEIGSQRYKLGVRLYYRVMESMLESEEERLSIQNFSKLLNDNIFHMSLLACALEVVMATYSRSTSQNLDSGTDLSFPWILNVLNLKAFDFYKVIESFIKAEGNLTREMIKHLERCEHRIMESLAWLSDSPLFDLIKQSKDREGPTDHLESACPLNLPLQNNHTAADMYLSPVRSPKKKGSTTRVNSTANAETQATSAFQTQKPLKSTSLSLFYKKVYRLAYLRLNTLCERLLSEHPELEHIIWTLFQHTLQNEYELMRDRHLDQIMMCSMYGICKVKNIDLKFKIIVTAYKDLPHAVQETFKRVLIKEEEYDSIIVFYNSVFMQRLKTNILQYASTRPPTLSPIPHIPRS

The next test deals with T5, Rb^P Q444R (human, UniProt P06400 380-788, Q444R).
T5 construct: also called variant 4
T5 sequence (looked up): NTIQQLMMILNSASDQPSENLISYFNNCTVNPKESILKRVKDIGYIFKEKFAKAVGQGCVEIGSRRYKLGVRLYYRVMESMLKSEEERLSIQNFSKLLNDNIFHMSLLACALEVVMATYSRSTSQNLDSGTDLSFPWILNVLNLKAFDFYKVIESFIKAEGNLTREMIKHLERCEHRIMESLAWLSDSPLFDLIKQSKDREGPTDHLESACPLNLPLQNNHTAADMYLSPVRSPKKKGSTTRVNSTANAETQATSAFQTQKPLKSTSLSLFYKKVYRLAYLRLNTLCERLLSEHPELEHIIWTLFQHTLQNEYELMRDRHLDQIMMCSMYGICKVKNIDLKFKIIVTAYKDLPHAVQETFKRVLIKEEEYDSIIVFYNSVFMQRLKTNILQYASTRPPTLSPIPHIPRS

No end group written: not given here. TMR = tetramethyl rhodamine dye

B1: TMR-E2F1^TD, peptide of the E2F1 transactivation domain (peptide)
peptide: {TMR}-GEGIRDLFDCDFGDLTPLD
notes: also called E2F^TD; source: synthetic peptide, bought: GenScript
Take B1: the Kd in the test with Rb^P L572I was found to be 87 nM; with Rb^P D604G, 50 nM; with Rb^P Q444L it was 30 nM; in the test with Rb^P K462E it was 67 nM; with Rb^P Q444R, 25 nM.

B2: TMR-E7^LxCxE, LxCxE peptide of the E7 oncoprotein from HPV (peptide)
peptide: DLYCYEQLN
modifications: also: TMR label, position not given here
notes: source: synthetic peptide, bought: GenScript
Regarding B2, the Kd with Rb^P L572I was found to be 15 nM; with Rb^P D604G, 26 nM; with Rb^P Q444L, 11 nM; in the test with Rb^P K462E, 32 nM; with Rb^P Q444R, 17 nM.
